According to publication PMC9287719:
Read-outs that look alike come from different tables or passages of the source. Each block holds one substance with its values, some of them ahead of it.

Experiments:
[1] = molecular target: Recombinant FcγRIIa (R131) with C-terminus Biotin (human); assay: BLI; Octet Red; biotinylated FcγR-AviTag loaded on Streptavidin biosensors (~0.5–1.0 nm); antibody in solution, 75 nM-1.17 nM for FcγRI, 5000 to 78.125 nM for the other receptors; PBST (PBS, 0.02% Tween20) pH 7.2; 60 s association, 60 s dissociation; steady state, one-site fit
[2] = molecular target: Recombinant FcγRIIa (H131) with C-terminus Biotin (human) (UniProt P12318); assay: as above
Sequence of Recombinant FcγRIIa (H131) with C-terminus Biotin (human) (P12318 34-217): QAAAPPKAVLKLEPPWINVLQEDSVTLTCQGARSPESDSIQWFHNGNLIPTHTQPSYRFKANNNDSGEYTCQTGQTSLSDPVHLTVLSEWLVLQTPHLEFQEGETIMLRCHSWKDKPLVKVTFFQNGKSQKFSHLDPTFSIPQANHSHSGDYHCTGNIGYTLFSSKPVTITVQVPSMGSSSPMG

[3] = molecular target: Recombinant FcγRI with C-terminus Biotin (human) (UniProt P12314); assay: as above
Sequence of Recombinant FcγRI with C-terminus Biotin (human) (P12314 16-292): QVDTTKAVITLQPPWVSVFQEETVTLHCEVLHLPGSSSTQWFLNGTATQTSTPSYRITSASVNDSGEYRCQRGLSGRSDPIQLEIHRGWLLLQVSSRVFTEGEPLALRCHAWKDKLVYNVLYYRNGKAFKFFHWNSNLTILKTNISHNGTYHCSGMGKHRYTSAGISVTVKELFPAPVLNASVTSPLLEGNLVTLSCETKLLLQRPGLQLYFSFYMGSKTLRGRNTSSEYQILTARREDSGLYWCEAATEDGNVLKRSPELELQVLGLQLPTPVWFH

[4] = molecular target: Recombinant FcγRIIIa (F158) with C-terminus Biotin (human) (UniProt P08637); assay: as above
Sequence of Recombinant FcγRIIIa (F158) with C-terminus Biotin (human) (P08637 17-208): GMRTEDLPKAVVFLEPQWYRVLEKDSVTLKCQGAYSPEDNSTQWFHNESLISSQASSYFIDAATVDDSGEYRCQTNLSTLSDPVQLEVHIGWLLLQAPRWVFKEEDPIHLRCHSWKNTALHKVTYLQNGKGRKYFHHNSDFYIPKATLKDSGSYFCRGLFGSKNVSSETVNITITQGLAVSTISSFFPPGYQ

[5] = molecular target: Recombinant FcγRIIIa (V158) with C-terminus Biotin (human); assay: as above
[6] = molecular target: Recombinant FcγRIIIa (V158) with C-terminus Biotin (human)
Target sequence in this assay (P08637 17-208 F176V): as the sequence (P08637 17-208) above, with F160V counted along it

[7] = molecular target: Recombinant FcγRIIIa (F158) with C-terminus Biotin (human) (UniProt P08637)
[8] = molecular target: Recombinant FcγRIIb with C-terminus Biotin (human) (UniProt P31994); assay: other; qualitative only
Sequence of Recombinant FcγRIIb with C-terminus Biotin (human) (P31994 43-217): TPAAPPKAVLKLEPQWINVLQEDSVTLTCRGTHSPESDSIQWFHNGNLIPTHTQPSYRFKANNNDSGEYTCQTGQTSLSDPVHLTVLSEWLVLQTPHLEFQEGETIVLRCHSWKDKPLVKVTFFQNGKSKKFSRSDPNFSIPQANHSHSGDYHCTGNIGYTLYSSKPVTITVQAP

[9] = molecular target: Recombinant FcγRIIa (R131) with C-terminus Biotin (human) (UniProt P12318)
Sequence of Recombinant FcγRIIa (R131) with C-terminus Biotin (human) (UniProt P12318) (P12318 34-217 H167R): as the sequence (P12318 34-217) above, with H134R counted along it

[10] = molecular target: Recombinant FcγRIIa (H131) with C-terminus Biotin (human) (UniProt P12318)
[11] = molecular target: Recombinant FcγRIIb with C-terminus Biotin (human) (UniProt P31994)
[12] = molecular target: Recombinant FcγRIIIa (F158) with C-terminus Biotin (human) (UniProt P08637); remark: listed apart in the source
[13] = molecular target: Recombinant FcγRIIa (R131) with C-terminus Biotin (human) (UniProt P12318); remark: listed apart in the source
[14] = molecular target: Recombinant FcγRIIIa (V158) with C-terminus Biotin (human); remark: listed apart in the source
Target sequence in this assay (P08637 17-208 F176V): as the sequence (P08637 17-208) above, with F160V counted along it

[15] = molecular target: Recombinant FcγRIIa (H131) with C-terminus Biotin (human) (UniProt P12318); remark: listed apart in the source
[16] = molecular target: Recombinant FcγRIIa (H131) with C-terminus Biotin (human) (UniProt P12318); remark: listed apart in the source
[17] = molecular target: Recombinant FcγRIIa (R131) with C-terminus Biotin (human) (UniProt P12318); remark: listed apart in the source
[18] = molecular target: Recombinant FcγRI with C-terminus Biotin (human) (UniProt P12314)
[19] = molecular target: Recombinant FcγRIIIa (F158) with C-terminus Biotin (human) (UniProt P08637); remark: listed apart in the source
[20] = molecular target: Recombinant FcγRIIIa (F158) with C-terminus Biotin (human) (UniProt P08637); remark: listed apart in the source
[21] = molecular target: Recombinant FcγRIIa (R131) with C-terminus Biotin (human) (UniProt P12318); remark: listed apart in the source
[22] = molecular target: Recombinant FcγRIIIa (V158) with C-terminus Biotin (human); remark: listed apart in the source
Target sequence in this assay (P08637 17-208 F176V): as the sequence (P08637 17-208) above, with F160V counted along it

[23] = molecular target: Recombinant FcγRIIa (H131) with C-terminus Biotin (human) (UniProt P12318); remark: listed apart in the source
[24] = molecular target: Recombinant FcγRIIb with C-terminus Biotin (human) (UniProt P31994); remark: listed apart in the source
[25] = molecular target: Recombinant FcγRIIa (R131) with C-terminus Biotin (human) (UniProt P12318); remark: listed apart in the source
[26] = molecular target: Recombinant FcγRIIIa (V158) with C-terminus Biotin (human); remark: listed apart in the source
Target sequence in this assay (P08637 17-208 F176V): as the sequence (P08637 17-208) above, with F160V counted along it

[27] = molecular target: Recombinant FcγRIIa (H131) with C-terminus Biotin (human) (UniProt P12318); remark: listed apart in the source
[28] = molecular target: Recombinant FcγRIIIa (F158) with C-terminus Biotin (human) (UniProt P08637); remark: listed apart in the source
[29] = molecular target: Recombinant FcγRI with C-terminus Biotin (human) (UniProt P12314); remark: listed apart in the source
[30] = molecular target: Recombinant FcγRIIIa (F158) with C-terminus Biotin (human) (UniProt P08637); details: domain or fragment
[31] = molecular target: Recombinant FcγRIIa (R131) with C-terminus Biotin (human) (UniProt P12318); details: domain or fragment
[32] = molecular target: Recombinant FcγRIIIa (V158) with C-terminus Biotin (human); details: domain or fragment
Target sequence in this assay (P08637 17-208 F176V): as the sequence (P08637 17-208) above, with F160V counted along it

[33] = molecular target: Recombinant FcγRI with C-terminus Biotin (human) (UniProt P12314); details: domain or fragment
[34] = molecular target: Recombinant FcγRIIa (H131) with C-terminus Biotin (human) (UniProt P12318); remark: listed apart in the source
[35] = molecular target: Recombinant FcγRIIIa (V158) with C-terminus Biotin (human); remark: listed apart in the source
Target sequence in this assay (P08637 17-208 F176V): as the sequence (P08637 17-208) above, with F160V counted along it

[36] = molecular target: Recombinant FcγRIIIa (F158) with C-terminus Biotin (human) (UniProt P08637); remark: listed apart in the source
[37] = molecular target: Recombinant FcγRIIa (R131) with C-terminus Biotin (human) (UniProt P12318); remark: listed apart in the source
[38] = molecular target: Recombinant FcγRIIa (H131) with C-terminus Biotin (human) (UniProt P12318); remark: listed apart in the source
[39] = molecular target: Recombinant FcγRIIIa (F158) with C-terminus Biotin (human) (UniProt P08637); remark: listed apart in the source
[40] = molecular target: Recombinant FcγRIIa (R131) with C-terminus Biotin (human) (UniProt P12318); remark: listed apart in the source
[41] = molecular target: Recombinant FcγRIIIa (V158) with C-terminus Biotin (human); remark: listed apart in the source

Sequence of Human IgG3 (P01860 whole entry, looked up): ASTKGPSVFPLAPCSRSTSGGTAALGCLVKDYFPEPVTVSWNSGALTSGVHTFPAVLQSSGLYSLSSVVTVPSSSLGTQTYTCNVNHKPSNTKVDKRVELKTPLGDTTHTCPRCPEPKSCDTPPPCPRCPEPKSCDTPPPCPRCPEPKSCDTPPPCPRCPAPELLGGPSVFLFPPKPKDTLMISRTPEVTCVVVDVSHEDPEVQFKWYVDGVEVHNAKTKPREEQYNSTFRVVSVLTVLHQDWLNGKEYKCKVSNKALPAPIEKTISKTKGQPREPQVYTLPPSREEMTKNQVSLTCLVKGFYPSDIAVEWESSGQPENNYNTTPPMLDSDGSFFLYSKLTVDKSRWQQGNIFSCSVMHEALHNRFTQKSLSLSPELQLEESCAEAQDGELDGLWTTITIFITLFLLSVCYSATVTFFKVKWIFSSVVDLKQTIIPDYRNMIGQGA

Kd [1]: 1400 nM
Kd [2]: 970 nM
Kd [3]: 17 nM
Kd [4]: 1300 nM
Substance: Cetuximab (antibody)

Kd [1]: 400 nM
Kd [2]: 410 nM
Kd [3]: 14 nM
Kd [5]: 280 nM
Substance: Etanercept (Fc fusion)

IC50 [6]: 15.2 nM
IC50 [7]: 111 nM
IC50 [8]: 918 nM
IC50 [9]: 117 nM
IC50 [10]: 37.3 nM
Substance: Flebogamma (from UniProt P01857)

IC50 [11]: 2670 nM
IC50 [12]: 110 nM
IC50 [13]: 204 nM
IC50 [14]: 17 nM
IC50 [15]: 63.5 nM
Substance: Gamunex (from UniProt P01857)

IC50 [16]: 67 nM
IC50 [17]: 122 nM
IC50 [18]: 0.23 nM
IC50 [19]: 65 nM
Substance: Human IgG1 (from UniProt P01857)

IC50 [20]: 44.8 nM
IC50 [8]: 819 nM
IC50 [21]: 85 nM
IC50 [22]: 12.3 nM
IC50 [23]: 40.8 nM
Substance: Human IgG3 (from UniProt P01860)

IC50 [24]: 989 nM
IC50 [25]: 25.8 nM
IC50 [26]: 15.7 nM
IC50 [27]: 4.64 nM
IC50 [28]: 99.4 nM
IC50 [29]: 0.11 nM
Substance: Human IgG (human polyclonal IgG) (from UniProt P01857)

IC50 [30]: 342 nM
IC50 [31]: 2280 nM
IC50 [32]: 81 nM
IC50 [33]: 0.56 nM
Substance: Human IgG Fc Fragment

Kd [1]: 340 nM
Kd [2]: 230 nM
Kd [3]: 21 nM
Kd [4]: 350 nM
Kd [5]: 120 nM
Substance: Infliximab (antibody)

Kd [1]: 800 nM
Kd [2]: 640 nM
Kd [3]: 12 nM
Kd [5]: 420 nM
Substance: NIST mAb standard (antibody)

IC50 [34]: 98.1 nM
IC50 [35]: 44.5 nM
IC50 [36]: 466 nM
IC50 [37]: 261 nM
Substance: NIST mAb standard (from UniProt P01857)

IC50 [8]: 2080 nM
IC50 [38]: 80.9 nM
IC50 [39]: 131 nM
IC50 [40]: 249 nM
IC50 [41]: 18.9 nM
Substance: Octagam (from UniProt P01857)
